Data: PMC7049730 (Nucleic Acids Research, 2019)
Changes are numbered by the printed parent chain. Names may count otherwise. Blank lines part the entries; values can stand above or below the molecule they belong to.

Key:
[1] = molecular target: Mre11^HLH-Rad50^NBD, wild type (Pyrococcus furiosus) (UniProt P58301); assay: SEC; Superdex 200 Increase 10/300 GL, 4 °C, with 5 mM ATP; fraction dimer = area of the dimer peak over the areas of monomer and dimer peaks; monomer to dimer
[2] = molecular target: P. furiosus Rad50 nucleotide binding domain L51C/L828A, LRET-labelled (UniProt P58301); assay: LRET time course; details: Rad50 NBD in MRNBD complex with Mre11; after addition of saturating ATP; parent: est. 1.0; read off a plot
[3] = molecular target: P. furiosus Rad50 nucleotide binding domain L51C/L828F, LRET-labelled (UniProt P58301); assay: LRET time course; details: Rad50 NBD in MRNBD complex with Mre11; after addition of saturating ATP; parent: est. 1.0; read off a plot
[4] = molecular target: P. furiosus Rad50 nucleotide binding domain L51C/D829N, LRET-labelled (UniProt P58301); assay: LRET time course; details: Rad50 NBD in MRNBD complex with Mre11; after addition of saturating ATP; parent: est. 1.0; read off a plot
[5] = molecular target: T1, Pf MR^NBD complex (Mre11-Rad50^NBD) (Pyrococcus furiosus, UniProt P58301, DEL196-708); assay: Mre11 exonuclease assay, 2-aminopurine fluorescence (Exo2 dsDNA); format: biochemical; details: 1 mM AMP-PNP, 1 mM MnCl2, 5 mM MgCl2, 60 C, pH 7.5; binds Rad50 and stabilizes the closed state that occludes the Mre11 active site
T1 construct: ~180 kDa complex; with DNA double-strand break repair protein Mre11

[6] = molecular target: the molecule itself; assay: FRET or BRET; LRET time course: increase of donor-sensitized Bodipy FL emission after addition of 2 mM ATP to MR complexes; kex = k_assoc + k_dissoc of open to closed; 50 mM Tris, 200 mM NaCl, 5 mM MgCl2, pH 7.5, 50 °C
[7] = molecular target: the molecule itself; assay: FRET or BRET; as a1 but with 2 mM ATP (ATP-bound); MR^NBD complexes with Mre11; 50 mM Tris, 200 mM NaCl, 5 mM MgCl2, pH 7.5, 50 °C; percent of LRET-visible molecules only
[8] = molecular target: the molecule itself; assay: FRET or BRET; LRET between Tb3+ chelate (donor) and Bodipy FL (acceptor) on L51C of the two Rad50^NBD in MR^NBD complexes with Mre11; donor-sensitized acceptor lifetimes, three-exponential fit; no ATP (apo); 0.5 uM wild type, L828A, D829A or 2.0 uM L828F, D829N complexes; 50 mM Tris, 200 mM NaCl, 5 mM MgCl2, pH 7.5, 50 °C; percent of LRET-visible molecules only

percent converted to a stable dimer upon addition of ATP [1]: 30% | stoichiometry N [1]: 2
Molecule: Mre11^HLH-Rad50^NBD, wild type (from UniProt P58301 1-195; P58301 709-882) (complex)

ratio to parent [2]: 4.4
Molecule: P. furiosus Rad50 nucleotide binding domain L51C, LRET-labelled (from UniProt P58301) L828A

ratio to parent [3]: 4.2
Molecule: P. furiosus Rad50 nucleotide binding domain L51C, LRET-labelled (from UniProt P58301) L828F

ratio to parent [4]: 8.7
Molecule: P. furiosus Rad50 nucleotide binding domain L51C, LRET-labelled (from UniProt P58301) D829N

Molecule: Nc1ncnc2c1ncn2[C@@H]1O[C@H](COP(=O)(O)OP(=O)(O)NP(=O)(O)O)[C@@H](O)[C@H]1O [AMP-PNP]
Mre11 exonuclease assay, 2-aminopurine fluorescence (Exo2 dsDNA) [5]: AMP-PNP, which stabilizes the complex into the closed state and occludes the Mre11 active

B1: P. furiosus Rad50 nucleotide binding domain L51C/L828F, LRET-labelled (domain or fragment, Pyrococcus furiosus)
chain: MKLERVTVKNFRSHSDTVVEFKEGINLIIGQNGSGKSSLLDAILVGLYWPCRIKDIKKDEFTKVGARDTYIDLIFEKDGTKYRITRRFLKGYSSGEIHAMKRLVGNEWKHVTEPSSKAISAFMEKLIPYNIFLNAIYIRQGQIDAILESDEAREKVVREVLNLDKFETAYKKLSELKKTINNRIKEYRDILARTEGGAGGAGGRERVKKEIKDLEKAKDFTEELIEKVKKYKALAREAALSKIGELASEIFAEFTEGKYSEVVVRAEENKVRLFVVWEGKERPLTFLSGGERIALGLAFRLAMSLYLAGEISLLILDEPTPYFDEERRRKLITIMERYLKKIPQVILVSHDEELKDAADHVIRISLENGSSKVEVVS
modifications: Tb3+ chelate DTPA-cs124-EMPH (donor) or Bodipy FL maleimide (acceptor) on the cysteine L51C
notes: Rad50, Pyrococcus furiosus, amino acids 1-195; linker that replaces most of the coiled-coil and the Zn-hook; Rad50, Pyrococcus furiosus, amino acids 709-882; Measured within the MR^NBD complex with Mre11; also called L828F MR^NBD (LRET); source: labelled and passed over Superdex 200 Increase
fold faster approach to equilibrium (kex) than wild type [6]: ~4 fold | percent of molecules in the closed state [7]: 30% | percent of molecules in the closed state [8]: 30%

B2: P. furiosus Rad50 nucleotide binding domain L51C/L828A, LRET-labelled (domain or fragment, Pyrococcus furiosus)
chain: B1 chain with F323A
modifications: Tb3+ chelate DTPA-cs124-EMPH (donor) or Bodipy FL maleimide (acceptor) on the cysteine L51C
notes: Rad50, Pyrococcus furiosus, amino acids 1-195; linker that replaces most of the coiled-coil and the Zn-hook; Rad50, Pyrococcus furiosus, amino acids 709-882; Measured within the MR^NBD complex with Mre11; also called L828A MR^NBD (LRET); source: labelled and passed over Superdex 200 Increase
fold faster approach to equilibrium (kex) than wild type [6]: ~4 fold | percent of molecules in the closed state [7]: 54% | percent of molecules in the closed state [8]: 46%

B3: P. furiosus Rad50 nucleotide binding domain L51C/D829N, LRET-labelled (domain or fragment, Pyrococcus furiosus)
chain: B1 chain with F323L, D324N
modifications: Tb3+ chelate DTPA-cs124-EMPH (donor) or Bodipy FL maleimide (acceptor) on the cysteine L51C
notes: Rad50, Pyrococcus furiosus, amino acids 1-195; linker that replaces most of the coiled-coil and the Zn-hook; Rad50, Pyrococcus furiosus, amino acids 709-882; Measured within the MR^NBD complex with Mre11; also called D829N MR^NBD (LRET); source: labelled and passed over Superdex 200 Increase
fold faster approach to equilibrium (kex) than wild type [6]: ~8 fold | percent of molecules in the closed state [7]: 33% | percent of molecules in the closed state [8]: 33%

B4: P. furiosus Rad50 nucleotide binding domain L51C/D829A, LRET-labelled (domain or fragment, Pyrococcus furiosus)
chain: B1 chain with F323L, D324A
modifications: Tb3+ chelate DTPA-cs124-EMPH (donor) or Bodipy FL maleimide (acceptor) on the cysteine L51C
notes: Rad50, Pyrococcus furiosus, amino acids 1-195; linker that replaces most of the coiled-coil and the Zn-hook; Rad50, Pyrococcus furiosus, amino acids 709-882; Measured within the MR^NBD complex with Mre11; also called D829A MR^NBD (LRET); source: labelled and passed over Superdex 200 Increase
percent of molecules in the closed state [7]: 60% | percent of molecules in the closed state [8]: 42%
